Reference: paper PMC5389710 (Nucleic Acids Research, 2016)

Tests used:
Test in all cases: ITC
[1] = target: Xenopus laevis core histone H2B (X. laevis, UniProt P02281 1-126)
[2] = target: Xenopus laevis core histone H3 (X. laevis, UniProt P84233 1-136)
[3] = target: Chicken erythrocyte H3–H4 histone dimer (chicken, UniProt P84229 1-136; P62801 1-103)

B1: Arabidopsis thaliana NAP1-related protein 1 (NRP1) (natural protein)
chain: MVADKSKKSKIEEKGEEENLEQIDAELVLSIEKLQEIQDDLEKINEKASDEVLEVEQKYNVIRKPVYDKRNEVIQSIPGFWMTAFLSHPALGDLLTEEDQKIFKYLNSLEVEDAKDVKSGYSITFHFTSNPFFEDAKLTKTFTFLEEGTTKITATPIKWKEGKGLPNGVNHDDKKGNKRALPEESFFTWFTDAQHKEDAGDEIHDEVADIIKEDLWSNPLTYFNNDADEEDFDGDDDGDEEGEEDDDDEEEEDGEE
- Kd [1]: 9.6 µM
- Kd [2]: 20 µM
- Kd [3]: 0.4 µM
